{
  "source": "patent US20190367619A1",
  "about": "(ARGENX, published 2019)",
  "binders": {"B1": {"name": "VHH clone 13B06 (VHH)", "VHH": "QVQLVESGGGLVQAGGSLRLSCAASGRTFSTYSMAWFRQAPGKEREFVAAITRSGGNTYADSVKGRFTISRDNAKNTVTLQMNSLKPEDTAAYHCAAGGTYSFVPRSYNYWGQGTQVTVSS", "notes": "Purified VHH-Myc-His from E. coli; not shown: Myc and His tags of the phagemid vector"}, "B2": {"name": "VHH clone 13C04 (VHH)", "VHH": "B1 VHH with Q1E, V2L, L4V", "notes": "as for B1"}, "B3": {"name": "scFv 5E12 (periplasmic extract, Myc-tagged) (scFv, not shown: small tags and cut ends)", "scFv": "QLQLVESGGGLVQPGGSLRLSCVASGFTFRNYPMTWVRQAPGKGPEWVSAINGGGDIPYYADSVKGRFTISRDNAKNTVYLQMDSLKPEDTAMYYCAKQKWGYDPRRTDFEFRGQGTQVTVSSGGGGSGGGGSGGGGSETVPTQSPSSVTASVGEKVTITCKSSQSVRIESNHKTYLNWYQQRPGRGPRLLIYDASSRESGIPDRFSGSGSTSDFTLTISSVQPEDAAVYYCQQAYAAPTFGQGTKLEIK"}, "B4": {"name": "5E12 scFv-human Fc (Fc fusion)", "scFv": "B3 scFv", "notes": "about 100 kDa on SDS-PAGE; also called 5E12 ScFv-hFc; not shown: CH2-CH3 constant domains of human IgG1 (vector pUPEX50)"}, "B5": {"name": "3A03 scFv-human Fc (Fc fusion)", "scFv": "QVQLVESGGGLVQPGGSLRLSCATSGFTFSVYAMSWVRQAPGKGLEWVADINTSGDSTTYADSVKGRFTISRDNAKNTLYLQMNSLKPEDTAVYYCANRYTQERGQGTQVTVSSGGGGSGGGGSGGGGSDVVLTQTPGSLSVVPGEAASISCKPGRTLVHTDGRTYLYWLQQKPGQRPQLLIYQVSNRGSGVPDRFTGSGSGTDFTLKISGVKAEDAGVYYCAQATYYPLTFGSGTRLEIK", "notes": "about 100 kDa on SDS-PAGE; also called 3A03 ScFv-hFc; not shown: CH2-CH3 constant domains of human IgG1 (vector pUPEX50)"}, "B6": {"name": "scFv 6F05 (periplasmic extract, Myc-tagged) (scFv, not shown: small tags and cut ends)", "scFv": "QLQLVESGGGLVQPGGSLRLSCAASGFTFSSYAMSWVRQAPGKGLEWVSAINSGGGSTSYADSVKGRFTISRDNAKNTLYLQMNSLKPEDTAVYYCATPGDRLWYYRYDYWGQGTQVTVSSGGGGSGGGGSGGGGSQAGLTQPPSVSGTLGKAVTISCAGTSSDIGYGNYVSWYQQLPGTAPKLLIYKVSRRASGVPDRFSGSKSGNTASLSISGLQSEDEADYYCASYRYRNNVVFGGGTHLTVL", "notes": "also called 6F5"}, "B7": {"name": "VHH clone 13C03 (VHH)", "VHH": "QVQLVESGGGLVQPGGSLRLSCAASGSIFSISRMGWYRQAPGKQRELVAIIFSDASTDYADSVKGRFTISRSNAKNTVYLQMNSLKPEDTAVYYCKSVLRAAGYGYFNQYWGQGTQVTVSS", "notes": "as for B1"}, "B8": {"name": "scFv 6A11 (periplasmic extract, Myc-tagged) (scFv, not shown: small tags and cut ends)", "scFv": "ELQLVESGGGLVQPGGSLRLSCSASGFTFGAYAMNWVRQAPGKGLEWVSGVNSGGGLTSYGESVKGRFTISRDNAKNTLYLQMNRLNPDDTAVYYCAKSKRGAVVAGTGDDYWGQGTQVTVSSGGGGSGGGGSGGGGSSSALTQPSAVSVSLGQTARITCQGGNFGRYYVSWYQQKPGQAPVLVIYKDSERPSGIPERFSGSSSGDTATLTISGAQAEDEADYYCQSGSSSDNAVFGGGTHLTVL"}, "B9": {"name": "VHH clone 13E09 (VHH)", "VHH": "QVQVQESGGGLVQAGNSLRLSCAASGRTFSSYHMMWFRQAPGKEREFVAAIAWRGGTYCANSVKGRCTISRDNAKDTVYLQMNSLKPEDTAVYFCAASLRYVFDPSAMDYWGKGTLVTVSS", "notes": "as for B1"}, "B10": {"name": "1A12 scFv-human Fc (Fc fusion)", "scFv": "QVQLVESGGGLVQPGGSLRVSCAASGFTFSSYYMSWVRQAPGKGLEWVSAINSGGGSTYYADSVKGRFTISRDNAKNTLYLQMNSLKSEDTAVYYCVQNGGIWSFGSWGQGTQVTVSSGGGGSGGGGSGGGGSSSALTQPSAISVSLGQTARITCQGGNFGYYYVSWYQQKPGQAPVQVIYGDSNRPSGIPERFSGSSSGGTATLTISGAQAEDEADYYCLSYESSDYPVFGGGTHLTVL", "notes": "about 100 kDa on SDS-PAGE; also called 1A12 ScFv-hFc; not shown: CH2-CH3 constant domains of human IgG1 (vector pUPEX50)"}},
  "key": {"human galectin-10-His": {"target": "T1, human galectin-10-His (human)", "T1 construct": "Whether the last M of the tag is the start Met of galectin-10 is not clear; also called human Gal10-HIS; humanGal10-His", "T1 chain": "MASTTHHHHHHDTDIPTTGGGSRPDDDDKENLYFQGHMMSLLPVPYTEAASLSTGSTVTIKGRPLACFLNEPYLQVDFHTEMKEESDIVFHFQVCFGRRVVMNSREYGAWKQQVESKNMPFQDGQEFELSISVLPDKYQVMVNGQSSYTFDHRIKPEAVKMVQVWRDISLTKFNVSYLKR", "experiment": "ELISA, Gal10-His coated at 1 ug/mL, VHH titrated, anti-Myc-HRP", "method": "(§1) The binding capacity of the 15 VHH clones was analysed by ELISA. Briefly, a Maxisorp plate was coated overnight with human or cynomolgus WGS or YRT isoforms galectin-10-His at 1 μg/mL and blocked with PBS 1% casein, before being incubated with a serial dilution of the VHH (from 4 μM, dilution 1/3, 12 points of dilutions). […] Absorbance was measured at 450 nm (reference at 620 nm) with Tecan instrument. Finally, the raw data (OD values) were plotted on GraphPad Prism 7.01. […] As a positive control, clone 1D06 from the previous human specific panel was included."}, "[1]": {"target": "T2, cynomolgus galectin-10-His, YRT isoform (cynomolgus)", "T2 construct": "not shown: His tag", "T2 chain": "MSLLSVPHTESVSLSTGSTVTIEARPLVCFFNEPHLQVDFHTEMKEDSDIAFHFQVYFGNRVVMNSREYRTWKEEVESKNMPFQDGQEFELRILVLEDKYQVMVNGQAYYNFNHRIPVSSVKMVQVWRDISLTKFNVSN", "experiment": "ELISA, Gal10-His coated at 1 ug/mL, VHH titrated, anti-Myc-HRP", "method": "as §1"}, "[2]": {"target": "T3, human galectin-10 as coated in ELISA (soluble galectin-10; tag not given) (human, UniProt Q05315 1-142, limits assumed)", "T3 construct": "also called coated galectin-10; Gal10", "T3 sequence": "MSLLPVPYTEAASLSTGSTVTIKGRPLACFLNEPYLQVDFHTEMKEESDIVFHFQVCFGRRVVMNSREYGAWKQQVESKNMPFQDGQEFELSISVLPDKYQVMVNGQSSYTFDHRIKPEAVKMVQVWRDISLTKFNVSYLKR", "experiment": "ELISA, scFv periplasmic extract on coated soluble galectin-10, anti-Myc-HRP", "method": "In order to test the binding capacity of the scFvs to galectin-10, an ELISA binding assay was established. Briefly, a Maxisorp plate was coated with soluble galectin-10 (1 μg/mL), then blocked with casein, before being incubated with the periplasmic extract (dilution 1/5 in PBS) containing the scFv-Myc. Detection of the binder was carried out with an anti-Myc-HRP antibody. Absorbance was measured at 450 nm (reference at 620 nm) with Tecan instrument. A significant number of galectin-10 scFv binders were isolated after the second round of selection (45-87% of binders)."}, "[3]": {"target": "T4, human galectin-10-His (recombinant human galectin-10 with TEV-cleavable N-terminal His-tag) (human)", "T4 construct": "SEC-MALLS: dimer in solution; also called Gal10-His; humanGal10-His", "T4 chain": "T1 chain", "experiment": "SPR Biacore T3000, scFv-hFc captured by anti-human Fc, galectin-10-His as analyte", "method": "In order to determine the binding properties (on-rate/off-rate) of the scFv-human Fc panel, their binding capacity to galectin-10 was analyzed on Biacore T3000. For this purpose, a capture approach was set up. A CM5 Chip was coated with polyclonal anti-human Fc at 8000 RU, then a fixed concentration of the scFv-human Fc panel (1.5 μg/mL), diluted in HBS-EP pH7.4, were captured to reach a binding signal around 150 RU. Finally, a serial dilution of galectin-10-His (serial dilution, 1 over 2 from 5 μg/mL, 6 points of dilution) diluted in HBS-EP pH7.4 was injected. Raw data were analyzed via BIA evaluation software with a blank subtraction (4-3). The kd/KD and Rmax of each scFv-human Fc for galectin-10-His was determined using the Fit Kinetics simultaneous ka/kd/Binding with mass transfer/Local Rmax on BIA evaluation software."}, "[4]": {"target": "T4, human galectin-10-His (recombinant …)", "experiment": "ELISA, scFv-hFc on coated galectin-10-His (0.2 ug/mL)", "method": "In a similar setup to that used during the initial screening, the relative binding properties of the 12 scFv-human Fc clones were analyzed by ELISA. Briefly, a Maxisorp plate was coated with galectin-10-His at 0.2 μg/mL and blocked with casein, before being incubated with a serial dilution of the scFv-human Fc fusion molecules. After several washing steps, detection of the bound scFv-human Fc was carried out with an anti-human Fc-HRP antibody. Absorbance was measured at 450 nm (reference at 620 nm) with Tecan instrument. Finally, the raw data (OD values) were plotted on GraphPad Prism 7.01. The EC50 value of each compound was calculated with a non-linear regression (log(agonist) vs. response Variable slope (four parameters))."}},
  "note": "Substitutions are numbered along the chain they refer to.",
  "data": [
    {"binder": "B1", "values": [
      {"measurement": "Bmax (OD values)", "setting": "human galectin-10-His", "result": 1, "unit": "OD"},
      {"measurement": "Bmax (OD values)", "setting": "[1]", "result": 2, "unit": "OD"}
    ]},
    {"binder": "B2", "values": [
      {"measurement": "Bmax (OD values)", "setting": "human galectin-10-His", "result": 1.1, "unit": "OD"},
      {"measurement": "Bmax (OD values)", "setting": "[1]", "result": 2.5, "unit": "OD"}
    ]},
    {"binder": "B3", "values": [
      {"measurement": "PERI-ELISA binding (OD values)", "setting": "[2]", "result": 2.42, "unit": "OD"}
    ]},
    {"binder": "B4", "values": [
      {"measurement": "Kd", "setting": "[3]", "result": 4.73, "unit": "nM"},
      {"measurement": "koff", "setting": "[3]", "result": 0.00177, "unit": "s⁻¹"},
      {"measurement": "Bmax (OD values)", "setting": "[4]", "result": 1.84, "unit": "OD"},
      {"measurement": "EC50", "setting": "[4]", "result": 0.25, "unit": "nM"}
    ]},
    {"binder": "B5", "values": [
      {"measurement": "Kd", "setting": "[3]", "result": 1.56, "unit": "nM"},
      {"measurement": "koff", "setting": "[3]", "result": 0.0111, "unit": "s⁻¹"},
      {"measurement": "Bmax (OD values)", "setting": "[4]", "result": 1.81, "unit": "OD"},
      {"measurement": "EC50", "setting": "[4]", "result": 0.06, "unit": "nM"}
    ]},
    {"binder": "B6", "values": [
      {"measurement": "PERI-ELISA binding (OD values)", "setting": "[2]", "result": 3.83, "unit": "OD"}
    ]},
    {"binder": "B7", "values": [
      {"measurement": "Bmax (OD values)", "setting": "human galectin-10-His", "result": 2, "unit": "OD"},
      {"measurement": "EC50", "setting": "human galectin-10-His", "result": 30.6, "unit": "nM"}
    ]},
    {"binder": "B8", "values": [
      {"measurement": "PERI-ELISA binding (OD values)", "setting": "[2]", "result": 2.35, "unit": "OD"}
    ]},
    {"binder": "B9", "values": [
      {"measurement": "Bmax (OD values)", "setting": "human galectin-10-His", "result": 1.8, "unit": "OD"},
      {"measurement": "EC50", "setting": "human galectin-10-His", "result": 106, "unit": "nM"},
      {"measurement": "Bmax (OD values)", "setting": "[1]", "result": 3, "unit": "OD"},
      {"measurement": "EC50", "setting": "[1]", "result": 66.9, "unit": "nM"}
    ]},
    {"binder": "B10", "values": [
      {"measurement": "Kd", "setting": "[3]", "result": 11.7, "unit": "nM"},
      {"measurement": "koff", "setting": "[3]", "result": 0.00315, "unit": "s⁻¹"},
      {"measurement": "Bmax (OD values)", "setting": "[4]", "result": 0.409, "unit": "OD"}
    ]}
  ]
}
